Measurements from patent publication US11814435B2, “Therapeutic antibodies and their uses” (PFIZER INC., priority 2015, dated 2023).
Substitutions are numbered along the chain they refer to. Blank lines part the entries; values can stand above or below the molecule they belong to.

How the values were obtained:
hBCMA (human BCMA) = molecular target: T1, hBCMA (human BCMA) (Homo sapiens, UniProt Q02223); assay: Kinetics and affinity of hBCMA/human IgG interactions by SPR (Bio-Rad Proteon XPR36); format: binding; settings: huBCMA
T1 sequence (Q02223 1-184): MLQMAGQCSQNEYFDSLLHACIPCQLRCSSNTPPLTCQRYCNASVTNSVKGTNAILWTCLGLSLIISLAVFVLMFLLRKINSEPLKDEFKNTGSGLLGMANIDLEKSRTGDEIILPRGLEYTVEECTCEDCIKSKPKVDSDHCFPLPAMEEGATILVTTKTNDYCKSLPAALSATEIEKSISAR
Procedure: All experiments were performed on a Bio-Rad Proteon XPR36 surface Plasmon resonance biosensor (Bio-Rad, Hercules, Calif.). An array of anti-BCMA antibodies was prepared using an amine-coupling method on a Bio-Rad GLC Sensor Chip similar to that described in Abdiche, et al., Anal. Biochem. 411, 139-151 (2011). The analysis temperature for the immobilization was 25° C. and the running buffer was HBS-T+(10 mM HEPES, 150 mM NaCl, 0.05% Tween-20, pH 7.4). Channels were activated in the analyte (horizontal) direction by injecting a mixture of 1 mM ECD and 0.25 mM NHS for 3 minutes at a flow rate of 30 μL/min. IgGs were immobilized on the activated spots by injecting them in the ligand (vertical) direction at 20 μg/mL in 10 mM Acetate pH 4.5 buffer for 1.5 minutes at […]. The activated surfaces were blocked by injecting 1M ethanolamine, pH 8.5 in the analyte direction for 3 minutes at 30 μL/min.
The analysis temperature for the hBCMA binding analysis was 37° C. or 25° C. in a running buffer of HBS-T+, supplemented with 1 mg/mL BSA. A kinetic titration method was employed for the interaction analysis as described in Abdiche, et al. The hBCMA (human BCMA) analyte was injected in the analyte direction using a series of injections from low to high concentration. The concentrations used were 0.08 nM, 0.4 nM, 2 nM, 10 nM and 50 nM (a 5-membered series, with a 5-fold dilution factor and top concentration of 50 nM). The association time for a given analyte dilution was two minutes. Immediately after the 50 nM hBCMA injection, dissociation was monitored for 2 hours. Prior to the hBCMA analyte injections, buffer was injected 5 times using the same association and dissociation times at the hBCMA analyte cycles to prepare a buffer blank sensorgram for double-referencing purposes (double referencing as described in Myszka, J. Mol. Recognit. 12, 279-284 (1999).
The sensorgrams were double-referenced and fit to a 1:1 Langmuir with mass transport kinetic titration model in BIAevaluation Software version 4.1.1 (GE Lifesciences, Piscataway, N.J.). The sensorgrams and fits are shown in FIG. 1, and the kinetics and affinity parameters for various anti-BCMA antibodies of the present invention are shown in Tables 6A-6C.

cyBCMA = assay: Kinetics and affinity of cyBCMA/human IgG interactions by SPR (Bio-Rad Proteon XPR36); format: binding, cynomolgus

B1: L1.GDF/L3.NY/H3.AP: anti-BCMA antibody (antibody, V domains shown)
VH: EVQLLESGGGLVQPGGSLRLSCAASGFTFGSYAMTWVRQAPGKGLEWVSAISGSGGNTFYADSVKGRFTISRDNSKNTLYLQMNSLRAEDTAVYYCARVSPIAAPMDYWGQGTLVTVSS
VL: EIVLTQSPGTLSLSPGERATLSCRASQSVGDFYLAWYQQKPGQAPRLLIYGASSRATGIPDRFSGSGSGTDFTLTISRLEPEDFAVYYCQHYNYPPSFTFGQGTKVEIK
ka (1/Ms) huBCMA @ 25° C. (hBCMA (human BCMA); 25° C.): 1.41e+06 M⁻¹ s⁻¹
kd (1/s) huBCMA @25° C. (hBCMA (human BCMA); 25° C.): 0.00141 s⁻¹
ka (1/Ms) cyBCMA @ 25° C. (cyBCMA; 25° C.): 1.36e+06 M⁻¹ s⁻¹
kd (1/s) cyBCMA @25° C. (cyBCMA; 25° C.): 0.00702 s⁻¹

B2: L3.PY/H2.YQ: anti-BCMA antibody (antibody, V domains shown)
VH: B1 VH with G53Y, S54Q, A104S, P105G
VL: B1 VL with G30S, D31S, F32S, N93P
ka (1/Ms) huBCMA @ 37° C. (hBCMA (human BCMA)): 2.58e+06 M⁻¹ s⁻¹
kd (1/s) huBCMA @37° C. (hBCMA (human BCMA)): 0.00156 s⁻¹
ka (1/Ms) cyBCMA @ 37° C. (cyBCMA): 2.46e+06 M⁻¹ s⁻¹
kd (1/s) cyBCMA @37° C. (cyBCMA): 0.00621 s⁻¹

B4: L3.PY/L1.AH/H2.QR: anti-BCMA antibody (antibody, V domains shown)
VH: B1 VH with S63Q, V64R, A104S, P105G
VL: B1 VL with G30S, D31A, F32H, N93P
ka (1/Ms) huBCMA @ 37° C. (hBCMA (human BCMA)): 3.13e+06 M⁻¹ s⁻¹
kd (1/s) huBCMA @37° C. (hBCMA (human BCMA)): 0.00181 s⁻¹
ka (1/Ms) cyBCMA @ 37° C. (cyBCMA): 2.2e+06 M⁻¹ s⁻¹
kd (1/s) cyBCMA @37° C. (cyBCMA): 0.00491 s⁻¹

B7: L3.PY/H2.QL: anti-BCMA antibody (antibody, V domains shown)
VH: B1 VH with S63Q, V64L, A104S, P105G
VL: B1 VL with G30S, D31S, F32S, N93P
ka (1/Ms) huBCMA @ 37° C. (hBCMA (human BCMA)): 2.64e+06 M⁻¹ s⁻¹
kd (1/s) huBCMA @37° C. (hBCMA (human BCMA)): 0.00218 s⁻¹
ka (1/Ms) cyBCMA @ 37° C. (cyBCMA): 2.05e+06 M⁻¹ s⁻¹
kd (1/s) cyBCMA @37° C. (cyBCMA): 0.0126 s⁻¹

B8: L3.PY/H2.LT: anti-BCMA antibody (antibody, V domains shown)
VH: B1 VH with G53L, S54T, A104S, P105G
VL: B1 VL with G30S, D31S, F32S, N93P
ka (1/Ms) huBCMA @ 37° C. (hBCMA (human BCMA)): 2.4e+06 M⁻¹ s⁻¹
kd (1/s) huBCMA @37° C. (hBCMA (human BCMA)): 0.00129 s⁻¹
ka (1/Ms) cyBCMA @ 37° C. (cyBCMA): 2.09e+06 M⁻¹ s⁻¹
kd (1/s) cyBCMA @37° C. (cyBCMA): 0.00757 s⁻¹

The next lines start with results.

ka (1/Ms) huBCMA @ 37° C. (hBCMA (human BCMA)): 3.22e+06 M⁻¹ s⁻¹
kd (1/s) huBCMA @37° C. (hBCMA (human BCMA)): 0.00361 s⁻¹
kd (1/s) cyBCMA @37° C. (cyBCMA): 0.00378 s⁻¹
B3: L3.PY/L1.PS/H2.DY: anti-BCMA antibody (antibody, V domains shown)
VH: B1 VH with S52D, G53Y, A104S, P105G
VL: B1 VL with G30S, D31S, F32S, L34P, A35S, N93P
ka (1/Ms) cyBCMA @ 37° C. (cyBCMA): 1.9e+06 M⁻¹ s⁻¹

ka (1/Ms) huBCMA @ 37° C. (hBCMA (human BCMA)): 3.3e+06 M⁻¹ s⁻¹
kd (1/s) huBCMA @37° C. (hBCMA (human BCMA)): 0.0106 s⁻¹
kd (1/s) cyBCMA @37° C. (cyBCMA): 0.00269 s⁻¹
B5: L3.PY/L1.PS/H2.HA: anti-BCMA antibody (antibody, V domains shown)
VH: B1 VH with G53H, S54A, A104S, P105G
VL: B1 VL with G30S, D31S, F32S, L34P, A35S, N93P
ka (1/Ms) cyBCMA @ 37° C. (cyBCMA): 1.45e+06 M⁻¹ s⁻¹

ka (1/Ms) huBCMA @ 37° C. (hBCMA (human BCMA)): 3.14e+06 M⁻¹ s⁻¹
kd (1/s) huBCMA @37° C. (hBCMA (human BCMA)): 0.00146 s⁻¹
kd (1/s) cyBCMA @37° C. (cyBCMA): 0.00413 s⁻¹
B6: L3.PY/L1.PS/H3.AE: anti-BCMA antibody (antibody, V domains shown)
VH: B1 VH with P105E
VL: B1 VL with G30S, D31S, F32S, L34P, A35S, N93P
ka (1/Ms) cyBCMA @ 37° C. (cyBCMA): 2.46e+06 M⁻¹ s⁻¹

ka (1/Ms) huBCMA @ 37° C. (hBCMA (human BCMA)): 3.35e+06 M⁻¹ s⁻¹
kd (1/s) huBCMA @37° C. (hBCMA (human BCMA)): 0.0043 s⁻¹
kd (1/s) cyBCMA @37° C. (cyBCMA): 0.00374 s⁻¹
B9: L3.PY/L1.PS/H2.YQ: anti-BCMA antibody (antibody, V domains shown)
VH: B1 VH with G53Y, S54Q, A104S, P105G
VL: B1 VL with G30S, D31S, F32S, L34P, A35S, N93P
ka (1/Ms) cyBCMA @ 37° C. (cyBCMA): 2e+06 M⁻¹ s⁻¹
